T1: FSTL1 (Homo sapiens, UniProt Q12841)
T1 sequence (Q12841 21-308): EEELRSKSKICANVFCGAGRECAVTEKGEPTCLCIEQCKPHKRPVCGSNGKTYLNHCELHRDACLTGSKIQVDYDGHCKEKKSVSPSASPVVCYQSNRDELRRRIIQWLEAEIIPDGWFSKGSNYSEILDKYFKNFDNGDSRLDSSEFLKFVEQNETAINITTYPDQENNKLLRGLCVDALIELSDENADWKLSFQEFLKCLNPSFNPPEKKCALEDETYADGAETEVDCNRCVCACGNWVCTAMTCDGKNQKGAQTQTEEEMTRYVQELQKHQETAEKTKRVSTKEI

B1: #13: chicken-mouse chimeric anti-FSTL1 antibody clone; variable regions SEQ ID NO: 815 (light), 817 (heavy) (antibody, V domains shown)
VH: AVTLDESGGGLQTPGGGLSLVCKASGFTFSSVTMQWVRQAPGKGLEWVASICSGSSTYYGPAVKGRATISRDNGQNTVRLQLNNLRAEDTATYYCAKIVGRGRWSCTSAAYNIDAWGHGTEVIVSS
VL: ASTQPSSVSANPGETVKITCSGGGNNYGWYQQKSPGSAPVTVIYNNNNRPSNIPSRFSGSKSGSTNTLTITGVQAEDEAVYYCGSYDSSSDSGIFGAGTTLTVL
modifications: mouse constant regions
B2: #6-55: chicken-mouse chimeric anti-FSTL1 antibody clone; variable regions SEQ ID NO: 783 (light), 785 (heavy) (antibody, V domains shown)
VH: AVTLDESGGGLQTPGGALSLVCKGSGFTFTSVTMQWVRQAPGKGLEWVASVCSGSSTYYAPAVKGRATISRDNGQSTVRLQLSNLRPEDTGTYYCAKIAGRARWSCTSAAYNIDAWGHGTEVIVSS
VL: ASTQPSSVSAIPGETVKITCSGGGNNYGWYQQRSPGSAPVTVIYYNDNRPSNIPSRFSGSTSGSTSTLTITGVQADDEAIYYCGSWDSNTDSGIFGAGTTLTVL
modifications: mouse constant regions
B3: #7-34: chicken-mouse chimeric anti-FSTL1 antibody clone; variable regions SEQ ID NO: 787 (light), 789 (heavy) (antibody, V domains shown)
VH: AVTLDESGGGLQTPGGGLSLVCKASGFTFSSVTMQWVRQAPGKGLEWVASICSGSSTYYGPAVKGRATISRDNGQNTVRLQLNNLRAEDTATYYCAKIVGRGRWSCTSAAYNIDAWGHGTEVIVSS
VL: ASTQPSSVSANPGETVKITCSGGGNNYGWYQQKSPGSAPVTVIYYNNNRPSNIPSRFSGSTSGSTSTLTITGVQAEDEAVYYCGSYEGSTDSGIFGAGTTLTVL
modifications: mouse constant regions
B4: #8-1: chicken-mouse chimeric anti-FSTL1 antibody clone; variable regions SEQ ID NO: 791 (light), 793 (heavy) (antibody, V domains shown)
VH: AVTLDESGGGLQTPGGALSLVCKGSGFTFSSFNMFWVRQAPGKGLEWVAGIGKDGVPKYGAAVDGRATISKDNGQSTMRLQLNNLRAEDTGTYFCAKAAGGCSYDWCGIYAGDIDTWGHGTEVIVSS
VL: ASTQPSSVSANPGEAVKITCSGGSGSYYGWYQQKSPGSAPVTVIYNNNQRPSDIPSRFSGSKSGSTATLTITGVQAEDEAVYFCGGYDSSSGHGGIFGAGTTLTVL
modifications: mouse constant regions
B5: #33: chicken-mouse chimeric anti-FSTL1 antibody clone; variable regions SEQ ID NO: 823 (light), 825 (heavy) (antibody, V domains shown)
VH: AVTLDESGGGLQTPGGGLSLVCKASGFTFSSFNMNWVRQAPGKGLEYVAEISGTGSSTYYGSAVKGRATISRDNGQSTVRLQLNNLRAEDTATYFCARGDGAYSIDAWGHGTEVIVSS
VL: ASTQPSSVSANPGETVEITCSGDSSYYGWFQQKSPGSAPVTVIYDNTNRPSDIPSRFSGSKSGSTATLTITGVRAEDEAVYYCGGYDSSTYDGIFGAGTTLTVL
modifications: mouse constant regions

Legend:
[1] = system: GFP+F10-snail+ tumor cells; assay: In vivo drug efficacy of each anti-FSTL1 antibody clone, Snail+ tumor bone metastasis model (Example 32); design: species or system mouse; details: intraperitoneal 10 mg/kg on days 4 and 7; for suppressive activity against subcutaneous tumor growth: FIG. 26, vs control antibody; for mouse survival period (life-prolonging effect): FIG. 27
Procedure: • Day 0: transplantation of GFP+F10-snail+ tumor cells (3×10^5 cells subcutaneously & 2×10^4 cells intravenously) • Day 4: intraperitoneal administration of the antibody (first dose, 10 mg/kg) • Day 7: intraperitoneal administration of the antibody (second dose, 10 mg/kg)
Subcutaneous tumor was measured 4, 7, 10, 14, 17, 20, and 23 days after tumor cell transplantation.

FSTL1 = target: T1, FSTL1; assay: Affinity of mouse chimeric antibodies for human FSTL1, Biacore T-200 (Example 33); format: binding
Procedure: The mouse chimeric antibodies were immobilized onto Sensor Chip CM5 (GE Healthcare Japan Corp., BR-1005-30) using Mouse Antibody Capture Kit (GE Healthcare Japan Corp., BR-1008-38), and their affinity for human FSTL1 was calculated using Biacore T-200 (GE Healthcare Japan Corp.).
First, the exhaustive activity comparison of the obtained antibodies was conducted with the human FSTL1 concentration fixed to 10 μg/ml (Table 33-1, FIG. 58).
Next, the KD values of clone #6-55, #7-34, and #13 presumed to have high affinity in FIG. 58 were calculated with the antigen concentration adjusted to 0 to 20 μg/ml (Table 35-2).
First, the exhaustive activity comparison of the obtained antibodies was conducted with the human FSTL1 concentration fixed to 10 μg/ml (Table 33-1, FIG. 90).
Next, the KD values of clone #6-55, #7-34, and #13 presumed to have high affinity in FIG. 90 were calculated with the antigen concentration adjusted to 0 to 20 μg/ml (Table 35-2).

[2] = system: mouse melanoma cells (B16-F10) forced to express Snail; assay: In vivo, intratumoral administration, Snail-positive B16-F10 bone metastasis model (Example 17); design: species or system C57BL/6N mice; details: intratumoral 200 μg/0.1 mL/tumor on day 7; GFP-positive tumor cells in bone marrow, day 14
From the text: Three antibodies were comparatively analyzed for their antitumor effects and an immunosuppression-mitigating effect using bone metastasis models in which mouse melanoma cells B16-F10 forced to express Snail were subcutaneously and intravenously transplanted in C57BL/6N mice.
1. Experiment Group (n=5) • 1. No treatment • 2. Control IgG (anti-DNP) • 3. Anti-FSTL1 Clone #6-55 • 4. Anti-FSTL1 Clone #7-34 • 5. Anti-FSTL1 Clone #8-1 2. Experimental procedure • Day 0: transplantation of GFP-positive and Snail-positive B16-F10 tumor cells (5×10^5 cells subcutaneously & 1×10^5 cells intravenously) • Day 7: intratumoral administration of the antibody (200 μg/0.1 mL/tumor) • Day 14: various assays (with a focus on flow cytometry analysis) 3. Index for drug efficacy evaluation • Effects on the growth of subcutaneous tumor (calculation of tumor volume by tumor size measurement): measured 7, 11, and 14 days after tumor implantation (FIG. 11C) • Effects on bone metastasis (GFP-positive tumor cells in bone marrow) (FIG. 11A) • Effects on the expansion of mesenchymal stem cells (CD45-negative cells in bone marrow and in the spleen) (FIGS. 11B and 11D) • Effects on the expansion of immunosuppressive Treg cells (CD4-positive and Foxp3-positive cells in bone marrow or the spleen) (FIG. 11D) • Other immunosuppressive properties (FIG. 11D)
In order to evaluate in vivo antibody activity, antitumor effects and immunosuppression-mitigating effects were comparatively analyzed using bone metastasis models in which mouse melanoma cells (B16-F10) forced to express Snail were subcutaneously and intravenously transplanted in C57BL/6N mice. An anti-FSTL1 antibody to be tested was administered into tumor. On day 0, GFP-positive and Snail-positive B16-F10 tumor cells (5×10^5 cells subcutaneously & 1×10^5 cells intravenously) were transplanted. On day 7, the antibody was administered into subcutaneous tumor (200 μg/0.1 mL/tumor). On day 14, various assays were conducted. […]

Molecule | suppressive activity against subcutaneous tumor growth [1] | affinity in an assay system using surface plasmon resonance (FSTL1) | bone metastasis [2] | mouse survival period (life-prolonging effect) [1]
B1 | all of the clones except for #13 exhibited statistically significant suppressive activity | strong affinity |  | 
B2 | statistically significant suppressive activity | strong affinity | bone metastasis was suppressed by only #6-55 and #8-1 | statistically significant life-prolonging effect
B3 |  | strong affinity | no suppressive effect was seen | 
B4 |  |  | bone metastasis was suppressed by only #6-55 and #8-1 | 
B5 |  | strong affinity |  | therapeutic effects equal to or higher than those of #6-55

From patent US20180021429A1, “ANTICANCER AGENTS OR ANTIMETASTATIC AGENTS USING FSTL1 AND COMBINATION DRUG THEREOF” (PHARMA FOODS INTERNATIONAL CO., LTD., priority 2015, published 2018)
